For experiment [1], the target named is 肝癌Huh-7细胞 (Huh-7癌细胞抗原; Huh-7细胞裂解蛋白). The experiment is described as follows: indirect ELISA; plate coated with 2 μg/mL Huh-7 cell antigen; purified ascites antibody in 2-fold dilutions. (ELISA stands for enzyme-linked immunosorbent assay.)
Experiment [2] has the same target. The experiment is described as follows: SPR, BIAcore T-200, 1:1 Langmuir model; binding to liver cancer Huh-7 cells. On the technique in general: SPR reads the build-up and loss of mass on a sensor chip optically.

Data on eight molecules can be found in patent CN112679613A.

Where a chain is given by its changes, count along the chain named.

B1: 4D6单克隆抗体 (antibody, V domains shown)
VH: EVKLVESGGGLVKPGGSLKLSCAASGFTFSQYRMGWVRQIPEKRLEWVAEISSASSLYFPDSVKSRFTISRDNARNICYLQMNSLRSDDTAMYYCARAREADNVYFDAWGQGTTLTVSS
VL: DIVLTQSPASLAVSLGQRATISCSQSESGTYYGTSLAMWYQQKPGQPPKLLIYAASNVESGVPARFSGSGSGTDFSLNIHPVEEDDIAMYFCTASMKAPLRFGAGTKLELK
For orientation: Kd means the free concentration of one partner at which half of the binding sites on the other are occupied at equilibrium, for simple one-to-one binding. Low values mean a tighter complex, high ones a looser complex. B1 gave a 抗体效价 in experiment [1] of 5.12e+06. In experiment [2], this molecule registered a Kd of 0.31 nM.

B2: 6F4单克隆抗体 (antibody, V domains shown)
VH: EVKLVESGGGLVKPGGSLKLSCAASGFTFSQYASLWVRQIPEKRLEWVAAISGQGSLYFPDSVCTRFTISRDNARNICYLQMNSLRSDDTAMYYCARGAAADGGYFDTWGQGTTLTVSS
VL: DIVLTQSPASLAVSLGQRATISCSASESVEFSGTSLTRWYQQKPGQPPKLLIYASQNVEGGVPARFSGSGSGTDFSLNIHPVEEDDIAMYFCCYSMKVPPRFGAGTKLELK
Molecule B2 gave a 抗体效价 in experiment [1] of 2.56e+06. The Kd in experiment [2] was 0.62 nM.

B3: 3E2单克隆抗体 (antibody, V domains shown)
VH: EVKLVESGGGLVKPGGSLKLSCAASGFTFSNSAMRWVRQIPEKRLEWVAVIRAGGSLYFPDRVKSRFTISRDNARNICYLQMNSLRSDDTAMYYCARGREADGGYFDYWGQGTTLTVSS
VL: DIVLTQSPASLAVSLGQRATISCAASERREYYGTSLASWYQQKPGQPPKLLIYARSNVEYGVPARFSGSGSGTDFSLNIHPVEEDDIAMYFCGSSMKRPLRFGAGTKLELK
On to B3, for which the 抗体效价 in experiment [1] stood at 2.56e+06. The same molecule showed a Kd in experiment [2] of 0.56 nM.

B4: 5D7单克隆抗体 (antibody, V domains shown)
VH: EVKLVESGGGLVKPGGSLKLSCAASGFTFSDAAMRWVRQIPEKRLEWVASISSLISLYFPDSVESRFTISRDNARNICYLQMNSLRSDDTAMYYCARGAEASGGYFDQWGQGTTLTVSS
VL: B3 VL with A24S, R28H, R29P, A37M, S38A, R55S, Y60T, G93Q, S94V, R101D
For the molecule B4, the 抗体效价 in experiment [1] stood at 5.12e+06. In experiment [2], the dissociation constant Kd was 0.45 nM.

B5: 5A3单克隆抗体 (antibody, V domains shown)
VH: B3 VH with N31R, S32Y, R35S, V50A, R52S, A53S, R62S, S65G
VL: DIVLTQSPASLAVSLGQRATISCSASESCYYYGTSLAQWYQQKPGQPPKLLIYKLSNVRGGVPARFSGSGSGTDFSLNIHPVEEDDIAMYFCRQPMKVPLKFGAGTKLELK
In turn, B5 had a 抗体效价 in experiment [1] of 2.56e+06. Besides, the Kd in experiment [2] amounted to 0.58 nM.

B6: 2D3单克隆抗体 (antibody, V domains shown)
VH: EVKLVESGGGLVKPGGSLKLSCAASGFTFSSAAMRWVRQIPEKRLEWVARIEEGGSAYFPDSVLVRFTISRDNARNICYLQMNSLRSDDTAMYYCARSRESPAGYFKLWGQGTTLTVSS
VL: DIVLTQSPASLAVSLGQRATISCCASESVHPYGTSLAMWYQQKPGQPPKLLIYASSRVEPGVPARFSGSGSGTDFSLNIHPVEEDDIAMYFCSSSGQVPARFGAGTKLELK
B6: the 抗体效价 in experiment [1] came out at 5.12e+06. The Kd in experiment [2] came to 0.23 nM.

B7: 6G5单克隆抗体 (antibody, part only; not given: Light chain variable region, V domains shown, part only)
VH: EVKLVESGGGLVKPGGSLKLSCAASGFTFSAYAMTWVRQIPEKRLEWVAAISPTGSLYFPGSVSGRFTISRDNARNICYLQMNSLRSDDTAMYYCARGVEADSQYFDKWGQGTTLTVSS
B7 displayed a 抗体效价 in experiment [1] of 5.12e+06. In addition, the Kd in experiment [2] was found to be 0.34 nM.

B8: 4D3单克隆抗体 (antibody, V domains shown)
VH: EVKLVESGGGLVKPGGSLKLSCAASGFTFSASAQSWVRQIPEKRLEWVALQSRSGSLYFPASVKQRFTISRDNARNICYLQMNSLRSDDTAMYYCARSREASGGYIDEWGQGTTLTVSS
VL: DIVLTQSPASLAVSLGQRATISCSASESGGYYGTSLMNWYQQKPGQPPKLLIYSTSNEEKGVPARFSGSGSGTDFSLNIHPVEEDDIAMYFCGQSMKRPLRFGAGTKLELK
Molecule B8 registered a 抗体效价 in experiment [1] of 5.12e+06. This molecule also displayed an equilibrium dissociation constant (Kd) in experiment [2] of 0.29 nM.
